Assay results from the supplement of paper PMC10567573.

B1: RSAD1 (parent)
chain: YCNFNKYIPRRLEEAAMQKCLVTE

Variants of: B1
Assay: protein stability index of a GFP-peptide fusion (GPS, HEK-293T) (PSI 1-6); higher = more stable
Conditions: c terminus: a fixed tail appended
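Also: lentivirally expressed fusions sorted by FACS into six bins by GFP to DsRed ratio, PSI derived from sequencing read proportions per bin multiplied by bin number.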

Protein stability index, by site and new letter:
Q18: R 2.03, F 2.34, D 1.84, M 3.17, I 2.76, S 2.02, N 3.44, P 1.96, L 1.71, H 1.88, G 1.76, Y 2.88, C 2.41, A 1.75, V 3.15, T 1.89, K 2.15
C20: R 2.55, Q 2, N 2.44, W 2.77, H 2.31, E 2.02, F 2.7, G 2.9, I 3.05, M 2.27, T 1.89, S 2.1, L 2.91, P 1.95, Y 4.07, A 2.87, V 1.89, D 2.56, K 2.11
A16: R 2.39, C 3.34, F 1.74, Y 2.16, D 2.54, V 2.98, T 2.39, H 3.97, M 1.57, N 3.66, W 1.79, S 2.56, Q 2.23, K 3.53, L 1.41, I 3.03
K6: S 2.19, Y 3.05, C 1.43, W 2.56, L 2.58, G 3.22, P 2.21, Q 1.5, N 2.56, E 3.37, M 3.03, V 3.4, D 2.9, A 2.11, I 2.52, R 1.7, F 3.19, H 3.4, T 2.79
M17: P 1.92, K 2.85, H 3.23, Q 2.57, G 1.99, F 1.67, L 1.96, I 2.82, W 2.1, V 2, R 1.71, T 3.45, Y 2.85, D 3.71, C 1.72, E 2.44, N 2.11, A 1.98
E14: M 3.14, Y 1.33, N 3.14, I 2.32, P 2.92, W 1.96, Q 2.85, H 1.65, K 1.58, C 2.27, V 3.05, A 3.07, R 2.33, L 2.34, F 2.31, S 2.5, G 3, T 2.09, D 2.71
V22: P 1.97, N 2.35, M 2.58, E 2.41, G 2.02, I 2.77, L 1.3, A 2.25, K 2.57, Q 2.5, D 1.76, R 3.88, C 2.58, H 2.78
N5: K 2.28, S 3.3, L 3.04, A 1.68, D 1.49, G 2.91, Y 2.75, M 2.72, V 1.19, R 2.48, P 2.07, I 2.17, Q 2.18, F 1.25, H 2.31, T 2.59, W 2.15
L12: Q 4, P 2.95, M 2.83, R 2.41, F 2.15, K 2.42, W 4.96, T 2, I 2.98, V 2.74, G 2.96, E 2.46, C 1.96, Y 3.24, D 2.19, S 2.45, H 2.52, N 3.28
E13: Q 1.93, W 2.49, F 2.34, N 3.29, R 2.19, P 3.17, L 2.16, K 1.82, D 3.69, T 2.55, G 2.11, Y 1.88, A 2.63, C 1.99, I 1.66, H 3.29, M 2.56, S 1.46
K19: Y 2.31, L 3.06, T 2.01, E 2.71, M 4.09, W 2.37, C 2.08, Q 2.96, I 2.25, G 2.12, S 2.41, H 1.7, N 2.37, D 1.68, V 1.48, P 2.76
P9: S 2.52, G 2.12, A 2.11, T 1.79, D 2.38, N 1.82, K 1.73, Q 1.54, H 2.14, M 1.4, C 3.11, R 1.37, W 2.6, L 2.28, Y 2.48, V 2.71, I 2.85, E 3.05
I8: T 1.96, V 1.09, D 2.3, K 1.71, L 2.05, W 2.26, H 2.58, A 1.69, P 1.83, F 2.48, Y 1.5, Q 1.61, E 2.03, S 2.37, N 1.68, M 1.85, G 1.22, R 1.67
A15: H 3.35, C 1.83, P 2.85, I 1.56, T 3.34, Y 2.61, N 2.09, E 1.84, D 2.55, K 1.69, W 1.04, Q 2.24, M 2.14, V 3.4, L 2.23, F 2.02
R10: K 1.64, T 1.59, I 2.39, F 2.22, Q 1.96, D 1.92, P 1.74, S 1.48, M 2.53, G 1.24, E 1.26, W 3.64, Y 2.26, C 3.8, L 2.63, A 1.91, H 1.94, N 2.33
Y7: D 2.49, N 2.58, S 2.51, L 2, T 2.22, G 2.18, A 2.11, K 2.42, F 3.98, P 2.42, R 2.31, I 2.02, Q 1.8, E 3.1, M 1.79, V 3.01, C 2.52, H 2.68
L21: M 1.42, T 2.04, S 1.42, F 2.97, Q 3.19, C 2.15, V 2.01, D 2.17, R 1.51, E 2.41, H 2.69, P 2.17, K 2.67, A 2.09, Y 3.19, I 1.79, N 2.19, G 2.03
R11: A 3.42, Q 1.67, T 1.95, E 2.17, D 1.84, Y 1.48, F 3.01, S 1.44, W 2.73, K 2.14, V 2.41, G 2.64, C 2.17, N 1.61, L 2.57, I 3.24, H 2.96
N3: Y 1.63, W 1.96
F4: C 1.94, R 1.95, H 1.21, G 2.66, N 2.49, E 2.07, M 2.35, T 2.61, W 2.56, Y 2.23, V 3.15, D 2.58, S 2.8, Q 2.76, P 2.82, K 2.26, I 1.67, L 2.08
